The data set concerns the molecule itself. The data set can be described thus: crystal structure; apo MICU1 ΔC - MICU2 ΔC (SeMet) mixed at a 1:1 molar ratio; crystals at 20°C in 20%(w/v) PEG 3350, 0.2 M ammonium citrate tribasic pH 7.5; 3.1 Å, SAD.

B1: human MICU2 ΔC helix (residues 84–401), selenomethionine derivative (domain or fragment, UniProt Q8IYU8 84-401, looked up)
chain: SLRKQRFMQFSSLEHEGEYYMTPRDFLFSVMFEQMERKTSVKKLTKKDIEDTLSGIQTAGCGSTFFRDLGDKGLISYTEYLFLLTILTKPHSGFHVAFKMLDTDGNEMIEKREFFKLQKIISKQDDLMTVKTNETGYQEAIVKEPEINTTLQMRFFGKRGQRKLHYKEFRRFMENLQTEIQEMEFLQFSKGLSFMRKEDFAEWLLFFTNTENKDIYWKNVREKLSAGESISLDEFKSFCHFTTHLEDFAIAMQMFSLAHRPVRLAEFKRAVKVATGQELSNNILDTVFKIFDLDGDECLSHEEFLGVLKNRMHRGLWV
modifications: selenomethionine (SeMet) derivative
notes: human MICU2 (mitochondrial calcium uptake protein 2), residues 84-401, without the C-terminal helix; pCold II vector with 6x His tag at the N terminus; also called mitochondrial calcium uptake protein 2; source: E. coli B834(DE3), purified (Ni-IDA, SEC); not shown: His6, N-terminal, kept
As for B1, the binding result is “binds”.

Values taken from publication PMC7055370, “Structure of the MICU1–MICU2 heterodimer provides insights into the gatekeeping threshold shift” (IUCrJ, 2020).
